Our source for the Km values is PMC6422694.

The data set concerns NC(=O)c1ccc[n+]([C@@H]2O[C@H](COP(=O)(O)OP(=O)(O)OC[C@H]3O[C@@H](n4cnc5c(N)ncnc54)[C@H](O)[C@@H]3O)[C@@H](O)[C@H]2O)c1. Kind of data set: purified protein. As to conditions: pH 8.1.

By Km is commonly meant the substrate concentration at which the rate is half of its maximum. As for (Oryza sativa Japonica Group), the Michaelis-Menten constant (Km) stood at 193.7 ± 98.2 µM.
